Molecular target: CBS–CP12 protein (IPF_2164) of Microcystis aeruginosa PCC 7806 (Microcystis aeruginosa PCC 7806)
Experiment: SEC

CBS–CP12 protein (IPF_2164) of Microcystis aeruginosa PCC 7806 (natural protein)
stoichiometry N: 6

Reference: paper PMC6142219
